Consider three molecules from paper PMC11098746 (2024).

This assay concerns the target FGFR4 ectodomain (Homo sapiens, UniProt P22455). The experiment in a line: AVEXIS normalised luminescence.

B1: 35 (protein)
chain: NNADINKAWKKNTYVDKKLNKLFNRALGESQVNGELASEEVKEKILDLLEEGNTLTESVDDNKNLEEAEDIKENILLSNIEEPKENIIDNLLNNIGQNSEKQESVSENVQVSDELFNELLNSVDVNGEVKENILEESQVNDDIFNSLVKSVQQEQQHNVEEKVEESVEENDEESVEENVEENVEENDDESVASSVEESIASSVDESIDSSIEENVAPTVEEIVAPTVEEIVAPSVVESVAPSVEESVEENVEESVAENVEESVAENVEESVAENVEESVAENVEESVAENVEESVAENVEEIVAPTVEESVAPTVEEIVAPSVEESVAPSVEEIVVPTVEESVAENVEEIVAPSVEEIVAPSVEEIVAPTVEESVAPTVEEIVAPSVEESVAPSVEEIVVPTVEESVAENVEESVAENVEEIVAPSVEEIVAPSVEEIVAPSVEEIVAPSVEEIVAPSVEEIVAPSVEEIVAPSVEEIVAPSVEEIVAPTVEEIVAPTVEEIVAPSVEEIVAPTVEESVAENVATNLADNLLSNLLGGIETEEIKDSILNEIEEVKENVVTTILENVEETTAESVTTFSNILEEIQENTITNDAIEEKLEELHENVLSAALENTQSEEEKKEVIDVIEEVKEEVATTLIETVEQAEEESASTITEIFENLEENAVESNENVAENLEKLNEAVFNTVLDKVEETVEISGESLENNEMDKAFFSEIFDNVKGIQENLLTGMFRSIETSIVIQSEEKVDLNENVVSSILDNIENMKEGLLNKLENIASTEGVQETVTEHVEQNVYVDVDVPAMKDQFLGILNEAGGLKEMFFNLEDVFKSESDVITVEEIKDEPVQKEVEKETVSIIEEMEENIVDVLEEEKEDLTDKMIDAVEESIEISSDSKEETESIKDKEKDVSLVVEEVQDNDMDESVEKVLELKNMEEELMKDAVEINDITSKLIEETQELNEVEADLIKDMEKLKELEKALSEDSKEIIDAKDDTLEKVIEEEHDITTTLDEVVELKDVEEDKIEKVSDLKDLEEDILKEVKEIKELESEILEDYKELKTIETDILEEKKEIEKDHFEKFEEEAEEIKDLEADILKEVSSLEVEEEKKLEEVHELKEEVEHIISGDAHIKGLEEDDLEEVDDLKGSILDMLKGDMELGDMDKESLEDVTAKLGERVESLKDVLSSALGMDEEQMKTRKKAQRPKLEEVLLKEEVKEEPKKKITKKKVRFDIKDKEPKDEIVEVEMKDEDIDEDIEEDVEEDIEEDKVEDIDEDIDEDIDEDIGEDKDEVIDLIVQKEKRIEKVKEKKKKLEKKVEEGVSGLKKHVDEVMKYVQKIDKEVDKEVSKALESKNDVTNVLKQNQDFFSKVKNFVKKYK
modifications: bait human Fc-tagged dimer
B1 showed a binding score of 0.753.

B2: 40 (protein)
chain: ISTHDTCDEWSEWSACTHGISTRKCLSDSSIKDETLVCTKCDKWGEWSECKDGRMHRKVLNCPFIKEEQECDVNNEMAEDTHMNNAYIYFNADDGDNEYEDHDDKNDDDKNYDNENDDDKNDDDKNDDDKNDDDKNDDDKNDDEENYNDAEEKVKNNDIHNSAANSNNEVTNFIQIKDKIMIKHKTTNIHPVNFIQEKYTRNNKYRSDNFAKILNNMNHINNNNYNSRSSSTSSKNARGYRGGSSNMYPHVPNYASSSVHNSANNERKSDEDLDNIEGDNIAKEERIVPINNKNYDNHDEHSNIHEHDTSRNVDNEKYNSNDDLPNLATYDYDMNNDAYKKNHMKKPMDSIKEEQTKQENNQNNEKVSSSEKQNDDISALYEHMNTKDQEHTQHEQPNDAAHGHFEDYSK
modifications: bait human Fc-tagged dimer
In turn, B2 had a binding score of 1.75.

B3: 31 (protein)
chain: EGYICDFSSEKYNIYFDEQKDDVICYHEIYEGDSIGIIIPRYKEGNENIYIKTNCFNEVSLESSGNNALSIYDIFNDDEITLYDQDSIFYTEYISSILHIKKVKKNTYLHCVFESKDVNGLTTHKGIAKITIKNVKHNENKKLINNDVDNNAALSFKKKLTNKLVIDLLNKIDIIKDDKLNNQYNNDDNKFLVEAKPGDILYLLGVKRKNKKYLYVDQDCPLHFERIGSIYKYIFPIINEKEEIYNCALYVDDDVSTNKKIVGNLKITFVSKNPAINDINIDVLKKYIHSDIEQKLYKLLYGEISNSVNKYAEQNVDINNADISAIQFMNLNSDNCNNNECIEFFNNAACSSYCGKGYRLLNGNNHMYDEQMVVPCYNGECKPEDEIEP
modifications: bait human Fc-tagged dimer
Consider B3, for which the binding score was 1.28.
